Test results reported in patent US20210395713A1 (TRUSTEES OF DARTMOUTH COLLEGE, published 2021).
Read-outs that look alike come from different tables or passages of the source.

How the values were obtained:
Test in all cases: MHC II competition binding assay
[1] = biological target: T1, purified recombinant MHC II protein, allele DRB1*0101 (human)
T1 construct: bought from Benaroya Research Institute; also called MHC-II DR molecule

[2] = biological target: T2, purified recombinant MHC II protein, allele DRB1*0701 (human)
T2 construct: bought from Benaroya Research Institute; also called MHC-II DR molecule

[3] = biological target: T3, purified recombinant MHC II protein, allele DRB1*1501 (human)
T3 construct: bought from Benaroya Research Institute; also called MHC-II DR molecule

[4] = biological target: T4, purified recombinant MHC II protein, allele DRB1*1101 (human)
T4 construct: bought from Benaroya Research Institute; also called MHC-II DR molecule

[5] = biological target: T5, purified recombinant MHC II protein, allele DRB1*0401 (human)
T5 construct: bought from Benaroya Research Institute; also called DR4; MHC-II DR molecule

[6] = biological target: T1, purified recombinant MHC II protein, …; remark: listed apart in the source
[7] = biological target: T6, purified recombinant MHC II protein, allele DRB1*0801 (human)
T6 construct: bought from Benaroya Research Institute; also called MHC-II DR molecule

[8] = biological target: T2, purified recombinant MHC II protein, …; remark: listed apart in the source
[9] = biological target: T7, purified recombinant MHC II protein, allele DRB1*0301 (human)
T7 construct: bought from Benaroya Research Institute; also called MHC-II DR molecule

[10] = biological target: T8, purified recombinant MHC II protein, allele DRB1*1301 (human)
T8 construct: bought from Benaroya Research Institute; also called MHC-II DR molecule

[11] = biological target: T3, purified recombinant MHC II protein, …; remark: listed apart in the source
[12] = biological target: T4, purified recombinant MHC II protein, …; remark: listed apart in the source
[13] = biological target: T5, purified recombinant MHC II protein, …; remark: listed apart in the source
[14] = biological target: T1, purified recombinant MHC II protein, …; remark: listed apart in the source
[15] = biological target: T2, purified recombinant MHC II protein, …; remark: listed apart in the source
[16] = biological target: T7, purified recombinant MHC II protein, …; remark: listed apart in the source
[17] = biological target: T8, purified recombinant MHC II protein, …; remark: listed apart in the source
[18] = biological target: T3, purified recombinant MHC II protein, …; remark: listed apart in the source
[19] = biological target: T4, purified recombinant MHC II protein, …; remark: listed apart in the source
[20] = biological target: T5, purified recombinant MHC II protein, …; remark: listed apart in the source
[21] = biological target: T6, purified recombinant MHC II protein, …; remark: listed apart in the source
[22] = biological target: T1, purified recombinant MHC II protein, …; remark: listed apart in the source
[23] = biological target: T1, purified recombinant MHC II protein, …; remark: listed apart in the source
[24] = biological target: T6, purified recombinant MHC II protein, …; remark: listed apart in the source
[25] = biological target: T2, purified recombinant MHC II protein, …; remark: listed apart in the source
[26] = biological target: T7, purified recombinant MHC II protein, …; remark: listed apart in the source
[27] = biological target: T8, purified recombinant MHC II protein, …; remark: listed apart in the source
[28] = biological target: T3, purified recombinant MHC II protein, …; remark: listed apart in the source
[29] = biological target: T4, purified recombinant MHC II protein, …; remark: listed apart in the source
[30] = biological target: T5, purified recombinant MHC II protein, …; remark: listed apart in the source
[31] = biological target: T6, purified recombinant MHC II protein, …; remark: listed apart in the source
[32] = biological target: T2, purified recombinant MHC II protein, …; remark: listed apart in the source
[33] = biological target: T4, purified recombinant MHC II protein, …; remark: listed apart in the source
[34] = biological target: T1, purified recombinant MHC II protein, …; remark: listed apart in the source
[35] = biological target: T6, purified recombinant MHC II protein, …; remark: listed apart in the source
[36] = biological target: T8, purified recombinant MHC II protein, …; remark: listed apart in the source
[37] = biological target: T3, purified recombinant MHC II protein, …; remark: listed apart in the source
[38] = biological target: T4, purified recombinant MHC II protein, …; remark: listed apart in the source

B1: cluster 5 peptide with Ser124Gly (peptide)
peptide: HLHFQRMVNSFGNPTAQ
notes: synthetic mutated peptide of the lysostaphin catalytic domain; also called S124G
- IC50 [1]: < 0.01 µM
- IC50 [2]: 151 µM
- IC50 [3]: < 0.01 µM
- IC50 [4]: 0.3 µM
- IC50 [5]: 0.04 µM

Binder: DYVKAGQIIGWSGSTGY [cluster 4 wild-type (C4WT) epitope peptide]
- IC50 [6]: < 0.01 µM
- IC50 [7]: 62.5 µM
- IC50 [8]: 92.9 µM
- IC50 [9]: 31.4 µM
- IC50 [10]: 78.5 µM
- IC50 [11]: < 0.01 µM
- IC50 [12]: 1.69 µM
- IC50 [13]: < 0.01 µM

B2: cluster 4 peptide with Tyr93His (peptide)
peptide: DHVKAGQIIGWSGSTGY
notes: synthetic mutated peptide of the lysostaphin catalytic domain; also called Y93H
- IC50 [6]: 103 µM
- IC50 [8]: 182 µM
- IC50 [11]: < 0.01 µM

B3: cluster 4 peptide with Lys95Glu (peptide)
peptide: DYVEAGQIIGWSGSTGY
notes: synthetic mutated peptide of the lysostaphin catalytic domain; also called K95E
- IC50 [6]: < 0.01 µM
- IC50 [7]: 12.2 µM
- IC50 [8]: 4.81 µM
- IC50 [9]: 1.9 µM
- IC50 [10]: 25.7 µM
- IC50 [11]: < 0.01 µM
- IC50 [12]: 6.32 µM
- IC50 [13]: < 0.01 µM

B4: cluster 4 peptide with Tyr93His/Lys95Glu/Ile99Gln (peptide)
peptide: DHVEAGQQIGWSGSTGY
notes: synthetic mutated peptide of the lysostaphin catalytic domain; also called 939599
- IC50 [8]: 179 µM

B5: cluster 4 peptide with Tyr93His/Lys95Glu (peptide)
peptide: DHVEAGQIIGWSGSTGY
notes: synthetic mutated peptide of the lysostaphin catalytic domain; also called 93_95
- IC50 [6]: 9.98 µM
- IC50 [7]: 30.9 µM
- IC50 [8]: 24.9 µM
- IC50 [9]: 110 µM
- IC50 [10]: 18.9 µM
- IC50 [11]: 0.06 µM
- IC50 [12]: 25 µM
- IC50 [13]: 25.5 µM

B6: cluster 4 peptide with Lys95Glu/Ile99Gln (peptide)
peptide: DYVEAGQQIGWSGSTGY
notes: synthetic mutated peptide of the lysostaphin catalytic domain; also called 95-99
- IC50 [6]: < 0.01 µM
- IC50 [8]: 104 µM
- IC50 [11]: < 0.01 µM
- IC50 [12]: 25.4 µM
- IC50 [13]: 25.8 µM

B7: cluster 4 peptide with Ile99Gln (peptide)
peptide: DYVKAGQQIGWSGSTGY
notes: synthetic mutated peptide of the lysostaphin catalytic domain; also called I99Q
- IC50 [6]: 31.7 µM
- IC50 [8]: 93.1 µM
- IC50 [11]: 66.1 µM
- IC50 [12]: 24.3 µM
- IC50 [13]: 6.16 µM

B8: cluster 4 peptide with Tyr93His/Ile99Gln (peptide)
peptide: DHVKAGQQIGWSGSTGY
notes: synthetic mutated peptide of the lysostaphin catalytic domain; also called 93_99
- IC50 [6]: < 0.01 µM
- IC50 [8]: 60.5 µM
- IC50 [11]: < 0.01 µM
- IC50 [13]: < 0.01 µM

Binder: GVDFFMNIGTPVKAISSGKIV [cluster 2 wild-type (C2WT) epitope peptide]
- IC50 [14]: 0.22 µM
- IC50 [15]: 8.19 µM
- IC50 [16]: 60.1 µM
- IC50 [17]: 104 µM
- IC50 [18]: 2.37 µM
- IC50 [19]: 10.1 µM
- IC50 [20]: 13.7 µM

B9: cluster 2 peptide with Ile41Glu (peptide)
peptide: GVDFFMNEGTPVKAISSGKIV
notes: synthetic mutated peptide of the lysostaphin catalytic domain; also called I41E
- IC50 [14]: 0.59 µM
- IC50 [15]: 7.51 µM
- IC50 [17]: 143 µM
- IC50 [18]: 7.44 µM
- IC50 [19]: 146 µM
- IC50 [20]: 3.48 µM

B10: cluster 2 peptide with Ile41Glu/Lys46His (peptide)
peptide: GVDFFMNEGTPVHAISSGKIV
notes: synthetic mutated peptide of the lysostaphin catalytic domain; also called 41_46
- IC50 [14]: < 0.01 µM
- IC50 [15]: 14.3 µM
- IC50 [18]: < 0.01 µM
- IC50 [19]: < 0.01 µM
- IC50 [20]: < 0.01 µM

B11: cluster 2 peptide with Lys46His (peptide)
peptide: GVDFFMNIGTPVHAISSGKIV
notes: synthetic mutated peptide of the lysostaphin catalytic domain; also called K46H
- IC50 [14]: 0.49 µM
- IC50 [21]: 87.5 µM
- IC50 [15]: 4.46 µM
- IC50 [16]: 152 µM
- IC50 [17]: 212 µM
- IC50 [18]: 2.55 µM
- IC50 [19]: 18.3 µM
- IC50 [20]: 1.65 µM
- fold decrease in binding against C2WT [22]: 2 fold

Binder: GVHRQWYMHLSKYNVKVGD [cluster 3 wild-type (C3WT) epitope peptide]
- IC50 [23]: < 0.01 µM
- IC50 [24]: 0.14 µM
- IC50 [25]: 0.41 µM
- IC50 [26]: 155 µM
- IC50 [27]: 54.7 µM
- IC50 [28]: 9.51 µM
- IC50 [29]: < 0.01 µM
- IC50 [30]: 38.1 µM

B12: cluster 3 peptide with Leu83Met (peptide)
peptide: GVHRQWYMHMSKYNVKVGD
notes: synthetic mutated peptide of the lysostaphin catalytic domain; also called L83M
- IC50 [23]: 32.4 µM
- IC50 [24]: 0.37 µM
- IC50 [25]: 2.09 µM
- IC50 [26]: 115 µM
- IC50 [27]: 27.4 µM
- IC50 [28]: 4.42 µM
- IC50 [29]: 0.11 µM
- fold decrease in binding against C3WT [22]: 2000 fold
- fold decrease in binding against C3WT [31]: ~5 fold
- fold decrease in binding against C3WT [32]: > 2 fold
- fold decrease in binding against C3WT [33]: 10 fold

Binder: SAQWLNNYKKGYGYG [cluster 1 wild-type (C1WT) epitope peptide]
- IC50 [34]: 215 µM
- IC50 [35]: 13.7 µM
- IC50 [36]: 137 µM
- IC50 [37]: 102 µM
- IC50 [38]: 0.94 µM

B13: cluster 1 peptide with Asn13His (peptide)
peptide: SAQWLNHYKKGYGYG
notes: synthetic mutated peptide of the lysostaphin catalytic domain
- IC50 [36]: 41.6 µM
- IC50 [38]: 4.13 µM

B14: cluster 1 peptide with Asn12Gly (peptide)
peptide: SAQWLGNYKKGYGYG
notes: as for B13
- IC50 [34]: < 0.01 µM
- IC50 [35]: 58.6 µM
- IC50 [38]: 5.16 µM
